Results reported in patent US20060257396A1 (published 2006).
Positions count from the first letter of the chain named. Blank lines part the entries; values can stand above or below the binder they belong to.

Assays:
[1] = molecular target: T1, aggregated synthetic Aβ1-42 (UniProt P05067 672-713); experiment: ELISA on aggregated synthetic Aβ1-42 (given as ED50)
T1 construct: range 672-713; Aggregated form coated for ELISA; also called aggregated Aβ1-42; aggregate Aβ 1-42

[2] = molecular target: T1, aggregated synthetic Aβ1-42; experiment: ELISA on aggregated synthetic Aβ1-42
Monomer = molecular target: T2, Monomer (preparation treated with peroxynitrite; modified residues not stated ; The preparation was treated with peroxynitrite. The modified residues are not stated and cannot be shown in the letters.); experiment: immunoprecipitation of the peroxynitrite treated oligomeric Aβ1-42 preparation with the antibody, SDS-PAGE (16% Tricine), Western blot imaged with 3D6
T2 construct: Monomer fraction of the same preparation as m4; also called Aβ1-42 monomer; monomeric Aβ

[3] = molecular target: T3, Aβ peptide (β-amyloid peptide; form and length not stated for the assay) (UniProt P05067 672-713); experiment: BIAcore
T3 construct: also called beta amyloid peptide

[4] = molecular target: T3, Aβ peptide (β-amyloid peptide; form and …); experiment: average of competitive ELISA and BIAcore
[5] = molecular target: T3, Aβ peptide (β-amyloid peptide; form and …); experiment: ELISA competitive binding assay with biotinylated 3D6
[6] = molecular target: T3, Aβ peptide (β-amyloid peptide; form and …); experiment: BIAcore, Langmuir model (global analysis)
[7] = molecular target: T1, aggregated synthetic Aβ1-42; experiment: competitive Aβ ELISA with biotin conjugated mouse 12A11 Cγ2a
[8] = molecular target: T3, Aβ peptide (β-amyloid peptide; form and …); experiment: Biacore; humanized h12A11v1

EC50 [1]: 0.667 nM | EC50 [2]: < 1 nM | binding result (Monomer): binds
B1: murine 12B4 monoclonal antibody (antibody, V domains shown)
VH: QVTLKESGPGILQPSQTLSLTCSFSGFSLSTNGMGVSWIRQPSGKGLEWLAHIYWDEDKRYNPSLKSRLTISKDTSNNQVFLKITNVDTADTATYYCARRRIIYDVEDYFDYWGQGTTLTVSS
VL: DVLMTQTPLSLPVSLGDQASISCRSSQNIVHSNGNTYLEWYLQKPGQSPKLLIYKVSNRFSGVPDRFSGSGSGTDFTLKISRVEAEDLGVYYCFQGSHVPLTFGAGTKLELK
notes: Mouse hybridoma antibody; Leader left out; also called mAb 12B4

EC50 [1]: 0.233 nM | EC50 [2]: < 1 nM
B2: murine 12A11 monoclonal antibody (antibody, mouse IgG1, V domains shown)
VH: QVTLKESGPGILKPSQTLSLTCSFSGFSLSTSGMSVGWIRQPSGKGLEWLAHIWWDDDKYYNPSLKSRLTISKDTSRNQVFLKITSVDTADTATYYCARRTTTADYFAYWGQGTTLTVSS
VL: B1 VL with N28S, V90I, G96S
notes: also called mu12A11; m12A11

EC50 [1]: 0.333 nM | EC50 [2]: < 1 nM
B3: monoclonal antibody 2C1 (antibody, V domains shown)
VH: EVQLQQSGAELVKPGASVKLSCTGSGFNIKVYYVHWLKQLTEQGLEWIGRIDPENGETIYAPKFQDKATLTVDTSSNTAYLQLSSLTSEDTAVYYCVSSGYWGQGTTLTVSS
VL: DIVMTQSAFSNPVTLGTSASISCRSSKSLLHRNGITYLYWYLQKPGQSPQLLIYQMSNLASGVPDRFTSSGSGTDFTLKISRVEAEDVGVYYCAQNLELWTFGGGTKLEIK

Kd [3]: 2.06 nM | fold loss of binding affinity against murine 3D6 [4]: ~3 fold | fold less binding affinity than 3D6 [5]: ~6 fold
B4: humanized 3D6 version 1 (antibody, V domains shown)
VH: EVQLLESGGGLVQPGGSLRLSCAASGFTFSNYGMSWVRQAPGKGLEWVASIRSGGGRTYYSDNVKGRFTISRDNAKNSLYLQMNSLRAEDTALYYCVRYDHYSGSSDYWGQGTLVTVSS
VL: YVVMTQSPLSLPVTPGEPASISCKSSQSLLDSDGKTYLNWLLQKPGQSPQRLIYLVSKLDSGVPDRFSGSGSGTDFTLKISRVEAEDVGVYYCWQGTHFPRTFGQGTKVEIK
notes: also called h3D6v1; h3D6 v1

Kd [3]: 2.24 nM | fold loss of binding affinity against murine 3D6 [4]: ~3 fold | fold less binding affinity than 3D6 [5]: ~6 fold
B5: humanized 3D6 version 2 (antibody, V domains shown)
VH: B4 VH with A75S, S78T, L93V
VL: B4 VL with Y1D
notes: also called h3D6v2; h3D6 v2

Ka [6]: 6.86e+07 M⁻¹ | Kd [6]: 14.6 nM | koff [6]: 0.00412 s⁻¹ | kon [6]: 283000 M⁻¹ s⁻¹
B6: humanized 12A11 version 2 (antibody, V domains shown)
VH: QVQLVESGGGVVQPGRSLRLSCAFSGFTLSTSGMSVGWIRQAPGKGLEWVAHIWWDDDKYYNPSLKSRFTISKDTSKNTLYLQMNSLRAEDTAVYYCARRTTTADYFAYWGQGTTVTVSS
VL: DVVMTQSPLSLPVTPGEPASISCRSSQSIVHSNGNTYLEWYLQKPGQSPQLLIYKVSNRFSGVPDRFSGSGSGTDFTLKISRVEAEDVGVYYCFQSSHVPLTFGQGTKLEIK
notes: V region subcloned into heavy chain expression vector pCMV-Cgamma1 (human γ1); also called h12A11v2

Ka [6]: 6.53e+07 M⁻¹ | Kd [6]: 15.3 nM | koff [6]: 0.0055 s⁻¹ | kon [6]: 359000 M⁻¹ s⁻¹
B7: humanized 12A11 version 3 (antibody, V domains shown)
VH: B6 VH with K73R, T75N
VL: B6 VL
notes: Variable regions only; made like version 2; also called h12A11v3; humanized 12A11 v3

Ka [6]: 1.67e+08 M⁻¹ | Kd [6]: 5.99 nM | koff [6]: 0.00313 s⁻¹ | kon [6]: 523000 M⁻¹ s⁻¹
B8: humanized 12A11 version 3.1 (antibody, V domains shown)
VH: B6 VH with V50L, T75N
VL: B6 VL
notes: Variable regions only tied to the tested antibody; also called h12A11v3.1; humanized 12A11 v3.1

Ka [6]: 3.48e+08 M⁻¹ | Kd [6]: 2.87 nM | koff [6]: 0.00117 s⁻¹ | kon [6]: 408000 M⁻¹ s⁻¹ | IC50 ratio to murine and chimeric 12A11 [7]: ≤ 2 fold | Kd [8]: 23 nM
B9: humanized 12A11 version 1 (antibody, V domains shown)
VH: B6 VH with T28S, V50L, F69L, L80V
VL: B6 VL
notes: Variable regions only tied to the tested antibody; also called h12A11v1; humanized 12A11 v1

Ka [6]: 1.17e+08 M⁻¹ | Kd [6]: 8.54 nM | koff [6]: 0.00261 s⁻¹ | kon [6]: 306000 M⁻¹ s⁻¹
B10: humanized 12A11 version 2.1 (antibody, V domains shown)
VH: B6 VH with T75N
VL: B6 VL
notes: Variable regions only; made like version 2; also called h12A11v2.1
